Test results: patent US20250340608A1 (PROTAGONIST THERAPEUTICS, published 2025)
Numbered stars: 1 amine (or outer) side, 2 acyl side, 3 side chain; on linkers, the order of the positions; unused ones are H or OH. Bridge positions count the residues as written; N and C are the ends. Square brackets hold non-standard residues; d marks the D form. Side chains are listed from the residue outwards. Ends that are not written are not given here. * marks the point of attachment. Ida = iminodiacetic acid, O=C(CN(CC(=O)[*:3])[*:1])[*:2]; γGlu = O=C(O)[C@H](CCC(=O)[*:2])N[*:1]; Palmitoyl = CCCCCCCCCCCCCCCC(=O)*; Myristoyl = CCCCCCCCCCCCCC(=O)*; β3hP = O=C(O)C[C@@H]1CCCN1; Isovaleryl = CC(C)CC(=O)*; Octanoyl = CCCCCCCC(=O)*; Albu = not defined here; dapa = not defined here

T1: human ferroportin (SLC40A1) fused in frame with GFP, stably expressed in HEK293 cells (human, UniProt Q9NP59 1-571)
T1 sequence (looked up): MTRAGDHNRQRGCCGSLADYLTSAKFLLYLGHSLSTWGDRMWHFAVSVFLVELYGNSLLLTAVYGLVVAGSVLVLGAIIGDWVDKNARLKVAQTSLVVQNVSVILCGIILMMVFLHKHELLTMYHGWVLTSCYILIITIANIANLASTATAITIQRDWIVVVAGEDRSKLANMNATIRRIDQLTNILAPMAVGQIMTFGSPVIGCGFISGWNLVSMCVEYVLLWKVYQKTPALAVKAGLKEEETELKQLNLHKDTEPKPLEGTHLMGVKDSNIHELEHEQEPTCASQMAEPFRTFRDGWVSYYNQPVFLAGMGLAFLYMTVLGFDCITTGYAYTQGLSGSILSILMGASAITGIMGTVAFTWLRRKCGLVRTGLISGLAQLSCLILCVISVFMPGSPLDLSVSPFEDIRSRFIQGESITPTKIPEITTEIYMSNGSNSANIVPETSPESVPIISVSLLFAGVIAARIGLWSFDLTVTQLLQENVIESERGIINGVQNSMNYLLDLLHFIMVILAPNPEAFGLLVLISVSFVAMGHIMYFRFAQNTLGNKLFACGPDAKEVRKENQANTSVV

T2: human ferroportin (SLC40A1) fused in frame with GFP, stably expressed in HEK293 cells (human, UniProt Q9NP59 1-571)
T2 sequence (looked up): T1 sequence (looked up)

B1: Compound 31 (peptide)
peptide: H-DTHFPICIFGPRSKAWVCM-NH2
modifications: cysteine pairing not given here
B2: Compound 51 (peptide)
peptide: H-DTHFPCIAF-NH2
B3: Compound 66 (peptide)
peptide: H-DTHFPICIFGPRSKGAVCM-NH2
modifications: cysteine pairing not given here
B4: Compound 34 (peptide)
peptide: H-DTHFPICIFGPASKGWVCM-NH2
modifications: cysteine pairing not given here
B5: Compound 67 (peptide)
peptide: H-DTHFPICIAGPRSKGWVCM-NH2
modifications: cysteine pairing not given here
B6: Compound 52 (peptide)
peptide: H-DAHFPCIIF-NH2
B7: Compound 56 (peptide)
peptide: H-DTHFPCIFF-NH2
B8: Compound 33 (peptide)
peptide: H-ATHFPICIFGPRSKGWVCM-NH2
modifications: cysteine pairing not given here
B9: Compound 28 (peptide)
peptide: H-DTHFPICIFGPRAKGWVCM-NH2
modifications: cysteine pairing not given here
B10: Compound 38 (peptide)
peptide: H-DTHAPICIFGPRSKGWVCM-NH2
modifications: cysteine pairing not given here
B11: Compound 68 (peptide)
peptide: H-DTHFPICAFGPRSKGWVCM-NH2
modifications: cysteine pairing not given here
B12: Compound 55 (peptide)
peptide: H-DTHFPCIIFK-NH2
B13: Compound 27 (peptide)
peptide: H-DTHFPICIFGPHRSKGWVCM-NH2
modifications: cysteine pairing not given here
B14: Compound 47 (peptide)
peptide: H-DTHFPICIFGPRSKGWACM-NH2
modifications: cysteine pairing not given here
B15: Compound 60 (peptide)
peptide: H-DTAFPICIFGPRSKGWVCM-NH2
modifications: cysteine pairing not given here
B16: Compound 237 (peptide)
peptide: Isovaleryl-DTHFPCIKAGPRSKGWVCK-NH2
modifications: not fully specified (bridges); cysteine pairing not given here
B17: Compound 287 (peptide)
peptide: H-DTHFPCIEF-NH2
B18: Compound 357 (peptide)
peptide: Isovaleryl-DTHFPCIKKEPHSKECK-NH2
modifications: not fully specified (bridges); cysteine pairing not given here
B19: Compound 220 (peptide)
peptide: Isovaleryl-DTHFPCIKFEPK([γGlu-Palmitoyl])SKGCK-NH2
modifications: not fully specified (bridges); cysteine pairing not given here
B20: Compound 241 (peptide)
peptide: DTHFPCIKFKPRSKGWECK
modifications: not fully specified; N-terminal isovaleric acid; K10(isoGlu-Palm); C-terminal NH2
B21: Compound 224 (peptide)
peptide: DTHFPCIKFEPRSKGCKK
modifications: not fully specified; N-terminal isovaleric acid; K18(isoglu-Palm); C-terminal NH2
B22: Compound 307 (peptide)
peptide: H-DTHFPCIVF-NH2
B23: Compound 299 (peptide)
peptide: H-LTHFPCIIF-NH2
B24: Compound 284 (peptide)
peptide: H-ATHFPCIIF-NH2
B25: Compound 300 (peptide)
peptide: H-ETHFPCIIF-NH2
B26: Compound 261 (peptide)
peptide: Isovaleryl-HFPCIKFEPRSKGWVCK(Octanoyl)-NH2
modifications: disulfide 4-16 (inferred)
B27: Compound 254 (peptide)
peptide: [Ida]THFPCIKFEPRSKGWVCK(Myristoyl)-NH2
modifications: disulfide 6-18 (inferred)
B28: Compound 280 (peptide)
peptide: H-DTHFACIIF-NH2
B29: Compound 236 (peptide)
peptide: Isovaleryl-DTHAPCIKFGPRSKGWVCK-NH2
modifications: not fully specified (bridges); cysteine pairing not given here
B30: Compound 222 (peptide)
peptide: Isovaleryl-DTHFPCIKFEPRSKK([γGlu-Palmitoyl])CK-NH2
modifications: not fully specified (bridges); cysteine pairing not given here
B31: Compound 228 (peptide)
peptide: Isovaleryl-DTHFPCIKFEPRSK([dapa-Palmitoyl])GCK-NH2
modifications: not fully specified (bridges); cysteine pairing not given here; reading uncertain
B32: Compound 234 (peptide)
peptide: Isovaleryl-ATHFPCIKFGPRSKGWVCK-NH2
modifications: not fully specified (bridges); cysteine pairing not given here
B33: Compound 230 (peptide)
peptide: Isovaleryl-DTHFPCIKFEPRSKGCK([dapa-Palmitoyl])K-NH2
modifications: not fully specified (bridges); cysteine pairing not given here; reading uncertain
B34: Compound 279 (peptide)
peptide: H-DTHFPCAIF-NH2
B35: Compound 227 (peptide)
peptide: Isovaleryl-DTHFPCIKFEPK([dapa-Palmitoyl])SKGCK-NH2
modifications: not fully specified (bridges); cysteine pairing not given here; reading uncertain
B36: Compound 267 (peptide)
peptide: Isovaleryl-DTAFPCIKFEPRSKEC-NH2
modifications: disulfide 6-16 (inferred)
B37: Compound 247 (peptide)
peptide: DTHFPCIKFKPRSKGWVC
modifications: N-terminal isovaleric acid; K10(mysteric acid); C-terminal NH2
B38: Compound 242 (peptide)
peptide: Isovaleryl-DTHFPCIKFEPK([γGlu-Palmitoyl])SKGWECK-NH2
modifications: not fully specified (bridges); cysteine pairing not given here
B39: Compound 308 (peptide)
peptide: H-DTHFPCILF-NH2
B40: Compound 250 (peptide)
peptide: DTHFPCIKFKPRSKGWVC
modifications: N-terminal isovaleric acid; K10(octanoic acid); C-terminal NH2
B41: Compound 285 (peptide)
peptide: [Ida]THF[β3hP]CIIF-NH2
B42: Compound 283 (peptide)
peptide: H-DTAFPCIIF-NH2
B43: Compound 358 (peptide)
peptide: DTHFPCIKFKPHSKECK
modifications: not fully specified; N-terminal isovaleric acid; K10(isoglu-Palm); C-terminal NH2
B44: Compound 248 (peptide)
peptide: DTHFPCIKFKPRSKGWVC
modifications: N-terminal isovaleric acid; K10(lauric acid); C-terminal NH2
B45: Compound 265 (peptide)
peptide: Isovaleryl-DTHFPCIKFEPHSK(Albu)GCK-NH2
modifications: disulfide 6-16 (inferred); reading uncertain
B46: Compound 225 (peptide)
peptide: Isovaleryl-DTHFPCIK([dapa-Palmitoyl])FEPRSKGCK-NH2
modifications: not fully specified (bridges); cysteine pairing not given here; reading uncertain
B47: Compound 278 (peptide)
peptide: H-DTHFPCIIA-NH2

Each binder was assayed against T1, human ferroportin (SLC40A1) fused in … (assay: cell-based or functional assay).
With B1 the “Potency EC50” value was 175 nM. B2 was tested, and the “Potency EC50” value was 382 nM. With B3 the “Potency EC50” value was 520 nM. For B4, the “Potency EC50” value was 206 nM. For B5, the “Potency EC50” value was 2470 nM. For B6, the “Potency EC50” value was 388 nM. For B7, the “Potency EC50” value was 441 nM. For B8, the “Potency EC50” value was 184 nM. B9 was tested, and the “Potency EC50” value was 88 nM. For B10, the “Potency EC50” value was 254 nM. With B11 the “Potency EC50 (nM)” value was over 10000 nM. B12 was tested, and the “Potency EC50” value was 419 nM. For B13, the “Potency EC50” value was 149 nM. In the case of B14, the “Potency EC50” value is reported as 313 nM. B15 was tested, and the “Potency EC50” value was 498 nM.

These binders were tested against T2, human ferroportin (SLC40A1) fused in … (assay: cell-based or functional assay).
In the case of B16, the “Potency EC50” value is reported as 50 nM. In the case of B17, the “Potency EC50 (nM)” value is reported as over 1000 nM. For B18, the “Potency EC50 (nM)” value was over 1000 nM. With B19 the “Potency EC50” value was 5 nM. In the case of B20, the “Potency EC50” value is reported as 6 nM. B21 was tested, and the “Potency EC50” value was 4 nM. With B22 the “Potency: % (activity) at 1 µM” value was 75%. B23 was tested, and the “Potency: % (activity) at 1 µM” value was 64%. For B24, the “Potency EC50 (nM)” value was over 1000 nM. For B25, the “Potency: % (activity) at 1 µM” value was 77%. With B26 the “Potency EC50” value was over 300 nM. With B27 the “Potency EC50” value was 20 nM. For B28, the “Potency EC50 (nM)” value was over 1000 nM. With B29 the “Potency EC50” value was over 500 nM. For B30, the “Potency EC50” value was 4 nM. In the case of B31, the “Potency EC50” value is reported as 7 nM. With B32 the “Potency EC50” value was 60 nM. In the case of B33, the “Potency EC50” value is reported as 10 nM. B34 was tested, and the “Potency EC50 (nM)” value was over 1000 nM. B35 was tested, and the “Potency EC50” value was 10 nM. For B36, the “Potency EC50 (nM)” value was over 1000 nM. In the case of B37, the “Potency EC50” value is reported as 7 nM. In the case of B38, the “Potency EC50” value is reported as 8 nM. For B39, the “Potency: % (activity) at 1 µM” value was 89%. With B40 the “Potency EC50” value was 30 nM. For B41, the “Potency EC50 (nM)” value was over 1000 nM. For B42, the “Potency EC50” value was 739 nM. B43 was tested, and the “Potency EC50” value was 6 nM. With B44 the “Potency EC50” value was 10 nM. B45 was tested, and the “Potency EC50” value was 6 nM. B46 was tested, and the “Potency EC50” value was 17 nM. In the case of B47, the “Potency EC50 (nM)” value is reported as over 1000 nM.
